Source: patent publication US20250122266A1, “SMART SINGLE-DOMAIN INTRABODIES WITH PRECISION SWITCHES FOR BIOMEDICAL APPLICATIONS” (THE TEXAS A&M UNIVERSITY SYSTEM, priority 2020, published 2025)
Where two headings read alike, the source gives them in different places.

Legend:
[1] = target: Recombinant SARS-COV-2 Spike RBD (SARS-COV-2) (UniProt P0DTC2)
[2] = target: Recombinant SARS-COV-2 Spike RBD (SARS-COV-2) (UniProt P0DTC2); experiment: ELISA on immobilised RBD; read as the value without caffeine
NE-tethered mCh-lamin A = NE-tethered mCh-lamin A (UniProt P02545); experiment: NE/NP ratio of GFP signal in HeLa cells, before and after light
YFP-ORAI1 = YFP-ORAI1 (UniProt Q96D31); experiment: cell-based or functional assay
YFP-ORAI1, sequence (Q96D31 whole entry): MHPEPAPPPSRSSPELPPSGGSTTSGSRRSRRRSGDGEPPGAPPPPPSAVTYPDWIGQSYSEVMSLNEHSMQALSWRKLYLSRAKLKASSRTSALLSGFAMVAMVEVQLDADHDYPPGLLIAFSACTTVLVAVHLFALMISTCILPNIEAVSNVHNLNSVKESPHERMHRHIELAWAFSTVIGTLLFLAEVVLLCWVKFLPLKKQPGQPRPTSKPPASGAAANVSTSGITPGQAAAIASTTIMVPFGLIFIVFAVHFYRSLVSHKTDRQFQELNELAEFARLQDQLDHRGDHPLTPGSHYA

mCherry-COSMO-STIM1ct, sequence (Q13586 other isoform, or with tags, fused parts or gaps): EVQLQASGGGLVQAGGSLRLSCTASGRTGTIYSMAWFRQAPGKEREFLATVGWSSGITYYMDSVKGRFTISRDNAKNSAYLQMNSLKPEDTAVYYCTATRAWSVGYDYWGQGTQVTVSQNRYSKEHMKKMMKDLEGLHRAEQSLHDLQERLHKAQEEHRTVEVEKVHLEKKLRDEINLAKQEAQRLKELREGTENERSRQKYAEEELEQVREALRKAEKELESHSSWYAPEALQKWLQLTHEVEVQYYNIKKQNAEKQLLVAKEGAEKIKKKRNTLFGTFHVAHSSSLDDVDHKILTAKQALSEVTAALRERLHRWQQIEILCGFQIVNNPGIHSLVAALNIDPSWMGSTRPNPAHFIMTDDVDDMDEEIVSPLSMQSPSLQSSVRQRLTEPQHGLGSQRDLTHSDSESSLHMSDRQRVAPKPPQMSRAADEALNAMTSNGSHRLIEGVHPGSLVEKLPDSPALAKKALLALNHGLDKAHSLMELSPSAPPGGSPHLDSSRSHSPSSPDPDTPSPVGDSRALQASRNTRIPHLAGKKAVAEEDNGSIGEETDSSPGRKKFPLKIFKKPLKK

MBP-COSMO-VHH72
apparent binding affinity [1]: 18 nM
apparent binding affinity [2]: 29 nM

GFP-sunbody variant S0 (LOV2 fused to the N-terminus of LaM8) (VHH)
increase in the NE/NP ratio after photostimulation (NE-tethered mCh-lamin A): 10%

mCherry-COSMO-STIM1ct (from UniProt Q13586 233-685)
calcium influx (GCaMP6s) after 1 µM caffeine, activation half-life (YFP-ORAI1): 1.63 min
